The values that follow come from PMC11286949, “Structural basis of tRNA recognition by the widespread OB fold”.

Substitutions are numbered along the chain they refer to. Names and notes keep the numbering of the source.

Sequences and labels used below:
B1: tRNAIle G18C/G19C (G1, Fig. 5a) (structured_RNA)
RNA: GGGCUUGUAGCUCAGGUCCUUAGAGCGCACCCCUGAUAAGGGUGAGGUCGGUGGUUCAAGUCCACUCAGGCCUACCA
B2: tRNAIle G18C/G19C/dACCA (structured_RNA)
RNA: GGGCUUGUAGCUCAGGUCCUUAGAGCGCACCCCUGAUAAGGGUGAGGUCGGUGGUUCAAGUCCACUCAGGCCC
B3: tRNAIle ASL-GAAA/5'GGCC (structured_RNA)
RNA: GGCCGGGCUUGUAGCUCAGGUGGUUAGAGCGCACCGCGAAAGCGGUGAGGUCGGUGGUUCAAGUCCACUCAGGCCC
B4: tRNAIle ASL-GAAA/5'GC (structured_RNA)
RNA: GCGGGCUUGUAGCUCAGGUGGUUAGAGCGCACCGCGAAAGCGGUGAGGUCGGUGGUUCAAGUCCACUCAGGCCC
B5: tRNAIle 3'UGGU (structured_RNA)
RNA: B1 RNA with G1A, C18G, C19G, A74U, C75G, C76G, A77U
B6: tRNAIle ASL-GAAA/dACCA (structured_RNA)
RNA: GGGCUUGUAGCUCAGGUGGUUAGAGCGCACCGCGAAAGCGGUGAGGUCGGUGGUUCAAGUCCACUCAGGCCC
B7: tRNAIle d3'A (structured_RNA)
RNA: AGGCUUGUAGCUCAGGUGGUUAGAGCGCACCCCUGAUAAGGGUGAGGUCGGUGGUUCAAGUCCACUCAGGCCUACC
B8: tRNAIle dACCA (structured_RNA)
RNA: B2 RNA with C18G, C19G
B9: tRNAIle ASL-GAAA (structured_RNA)
RNA: GGGCUUGUAGCUCAGGUGGUUAGAGCGCACCGCGAAAGCGGUGAGGUCGGUGGUUCAAGUCCACUCAGGCCUACCA
B10: MicroH GAAA loop (structured_RNA)
RNA: AGGCUUCGAAAGAGGCCUACCA
B11: MiniH dACCA (structured_RNA)
RNA: AGGCUUGGGUGGUUCAAGUCCACUCAGGCCU
B12: MiniH +UUUU (structured_RNA)
RNA: AGGCUUGGGUGGUUCAAGUCCACUCAGGCCUACCAUUUU
B13: MiniH DNA tail (mixed)
RNA: AGGCUUGGGUGGUUCAAGUCCACUCAGGCCUACCA
modifications: four terminal deoxyriboses
B14: MicroH UGGU (structured_RNA)
RNA: AGGCUUCGAAAGAGGCCUUGGU
B15: MiniH dC74 (structured_RNA)
RNA: AGGCUUGGGUGGUUCAAGUCCACUCAGGCCUACA
B16: MiniH dA73 (structured_RNA)
RNA: B15 RNA with A32C
B17: ssRNA dACCA (ssRNA)
RNA: CCACUCAGGCCU
B18: ssRNA 5'ACCA (ssRNA)
RNA: ACCACUCACGCCU
B19: tRNAIle G18C/G19C (A1, Suppl. Fig. 13b) (structured_RNA)
RNA: B1 RNA with G1A
B20: S. cerevisiae tRNAAsp (G1-C72) (structured_RNA)
RNA: GCCGUGAUAGUUUAAUGGUCAGAAUGGGCGCUUGUCGCGUGCCAGAUCGGGGUUCAAUUCCCCGUCGCGGCGCCA
B21: MicroH 3'UGGU (structured_RNA)
RNA: AGGCUUUUCAAGUAGGCCUUGGU
B22: MiniH LoopGAAA (structured_RNA)
RNA: AGGCUUGGGUGCGAAAGCACUCAGGCCUACCA
B23: MiniH dLoop (dsRNA)
RNA 1: CCACUCAGGCCUACCA
RNA 2: AGGCUUGGGUGG
B24: MiniH-ACAA (structured_RNA)
RNA: B13 RNA with C34A
B25: MiniH-ACGA (structured_RNA)
RNA: B13 RNA with C34G
B26: MiniH-ACUA (structured_RNA)
RNA: B13 RNA with C34U
B27: tRNAIle ASL-GAAA dACCA 3bp (structured_RNA)
RNA: GGCGGGCUUGUAGCUCAGGUGGUUAGAGCGCACCGCGAAAGCGGUGAGGUCGGUGGUUCAAGUCCACUCAGGCCCGCC
B28: tRNATyr G17C/G18C (structured_RNA)
RNA: GGUGGGGUUCCCGAGCCCCCAAAGGGAGCAGACUGUAAAUCUGCCGUCAUCGACUUCGAAGGUUCGAAUCCUUCCCCCACCACCA
B29: MiniH dLoop+2bp (dsRNA)
RNA 1: GACCACUCAGGCCUACCA
RNA 2: AGGCUUGGGUGGUC
B30: MiniH dLoop+6bp (dsRNA)
RNA 1: GCAUGACCACUCAGGCCUACCA
RNA 2: AGGCUUGGGUGGUUAUGC
B31: tRNATyr ASL-GAAA dACCA 6bp (structured_RNA)
RNA: GGGCCCGGUGGGGUUCCCGAGCGGCCAAAGGGAGCAGACGAAAGUCUGCCGUCAUCGACUUCGAAGGUUCGAAUCCUUCCCCCACCGGGCCC
B32: MiniH dLoop+4bp (dsRNA)
RNA 1: GUGACCACUCAGGCCUACCA
RNA 2: AGGCUUGGGUGGUUAC
B33: MiniH ULoop (structured_RNA)
RNA: B13 RNA with C15U, A16U, A17U, G18U
B34: MiniH-ACAC (structured_RNA)
RNA: B13 RNA with C34A, A35C
B35: MicroH dACCA (structured_RNA)
RNA: AGGCUUUUCAAGUAGGCCU
B36: human mascRNA (structured_RNA)
RNA: GAUGCUGGUGGUUGGCACUCCUGGUUUCCAGGACGGGGUUCAAAUCCCUGCGGCGUCUCCA

In the first data set the target is T1, Arc1p dN (Saccharomyces cerevisiae, UniProt P46672 132-376, del1-131).
T1 sequence: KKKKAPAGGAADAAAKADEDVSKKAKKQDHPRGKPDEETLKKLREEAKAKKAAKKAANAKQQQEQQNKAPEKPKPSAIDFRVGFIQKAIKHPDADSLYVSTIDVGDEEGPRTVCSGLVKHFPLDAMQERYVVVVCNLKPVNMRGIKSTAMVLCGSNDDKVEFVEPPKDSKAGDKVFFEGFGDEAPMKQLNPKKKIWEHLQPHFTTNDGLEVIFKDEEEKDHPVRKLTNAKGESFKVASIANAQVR
Nature of the data set: ITC; ITC (Arc1p): 25 mM Tris-HCl pH 7.4, 150 mM NaCl, 2 mM MgCl2, 25 °C. FP and competition FP: 25 mM Tris-HCl pH 7.5, 150 mM NaCl (Arc1p) or 50 mM NaCl (Trbp111), 2 mM MgCl2, room temperature. The settings on record: protein: recombinant; tags: His-MBP removed; elbow disrupted. A general note: Isothermal titration calorimetry measures the heat released or taken up as one component is titrated into another.
A word on the Kd: it is a measure of binding affinity in units of concentration. Take B1: the Kd worked out at 3.33 µM.

As to B2, the Kd was determined as 2.79 ± 0.304 µM.

Still in this data set, the particulars now being: protein: recombinant; tags: His-MBP removed; palindromic tail, strong dimer.
On to B3, for which the Kd turned out to be 3.3 µM.

Still in this data set, the particulars now being: protein: recombinant; tags: His-MBP removed; palindromic tail, weak dimer.
As to B4, the Kd came out at 1.5 ± 0.283 µM.

The same data set, now with this note: protein: recombinant; tags: His-MBP removed; tRNA fold.
Consider B5, for which the Kd was 0.654 ± 0.165 µM.

As to B6, the Kd amounted to 1.75 ± 0.958 µM.

Consider B7, for which the Kd worked out at 1.04 ± 0.295 µM.

As for B8, the Kd was 2.1 ± 0.985 µM.

On to B9, for which the dissociation constant (Kd) was determined as 0.252 ± 0.11 µM.

The target of a further data set is Trbp111 (Aquifex aeolicus, UniProt O66738 1-111). The data set is described as follows: competition fluorescence polarization; ITC (Arc1p): 25 mM Tris-HCl pH 7.4, 150 mM NaCl, 2 mM MgCl2, 25 °C. FP and competition FP: 25 mM Tris-HCl pH 7.5, 150 mM NaCl (Arc1p) or 50 mM NaCl (Trbp111), 2 mM MgCl2, room temperature. The settings on record: protein: recombinant; tags: His-MBP removed (PreScission); chain copies: 2; hairpin.
Sequence of Trbp111 (O66738 entry or part of it): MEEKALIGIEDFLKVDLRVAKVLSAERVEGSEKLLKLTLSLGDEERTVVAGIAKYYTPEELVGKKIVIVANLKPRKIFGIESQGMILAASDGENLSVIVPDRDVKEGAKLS
One may read the IC50 as the point on the concentration scale where inhibition reaches its midpoint. In the case of B10, the IC50 amounted to 5.92 ± 0.188 µM.

For the molecule B11, the binding result is given as “no binding”.

As to B12, the binding result was “no binding”.

Take B13: the half-maximal inhibitory concentration (IC50) came out at 7.51 ± 1.02 µM.

Turning to B14, the binding result is “no binding”.

B15: the IC50 was 5.06 ± 0.269 µM.

In the case of B16, the IC50 worked out at 5.21 ± 0.817 µM.

The data set is the same for the next values; noted with them: protein: recombinant; tags: His-MBP removed (PreScission); chain copies: 2; single strand.
As for B17, the binding result is “no binding”.

On to B18, for which the binding result was “no binding”.

The target in a further data set is T1, Arc1p dN. Described as above. The settings on record: protein: recombinant; tags: His-MBP removed.
With B19, the half-maximal inhibitory concentration (IC50) was found to be 0.804 ± 0.107 µM.

For the molecule B20, the IC50 stood at 0.402 ± 0.0538 µM.

On to B21, for which the IC50 came out at 15.3 ± 3.31 µM.

In the case of B22, the IC50 came out at 3.06 ± 0.0821 µM.

Turning to B23, the IC50 came to 2.26 ± 1.21 µM.

For the molecule B24, the IC50 amounted to 3.08 ± 0.63 µM.

Take B25: the IC50 turned out to be 4.83 ± 0.11 µM.

In the case of B26, the 50% inhibitory concentration (IC50) was 2.6 ± 0.397 µM.

B27: the IC50 came out at 0.681 ± 0.201 µM.

Regarding B28, the IC50 is 0.652 ± 0.0471 µM.

In the case of B29, the IC50 was 4.66 ± 1.43 µM.

Consider B30, for which the IC50 is 3.47 ± 0.263 µM.

For B31, the IC50 turned out to be 1.02 ± 0.224 µM.

As for B32, the IC50 amounted to 3.9 ± 0.124 µM.

For the molecule B33, the IC50 worked out at 3.95 ± 0.248 µM.

Staying with this data set, now noted: protein: recombinant; tags: His-MBP removed; hairpin.
Take B10: the IC50 stood at 13.4 ± 5.38 µM.

Take B11: the IC50 worked out at 10.5 ± 2.82 µM.

Consider B12, for which the IC50 was 9.39 ± 0.782 µM.

B34: the IC50 is 3.92 ± 0.672 µM.

Regarding B35, the IC50 turned out to be 53.7 ± 5.22 µM.

Take B14: the IC50 amounted to 43 ± 7.65 µM.

B15: the IC50 amounted to 3.03 ± 0.158 µM.

Regarding B16, the IC50 worked out at 2.45 ± 0.511 µM.

The data set is the same for the next values; noted with them: protein: recombinant; tags: His-MBP removed; tRNA-like.
Consider B36, for which the IC50 is 0.377 ± 0.0571 µM.

A further data set deals with T2, Arc1p (Saccharomyces cerevisiae, UniProt P46672 1-376).
T2 sequence: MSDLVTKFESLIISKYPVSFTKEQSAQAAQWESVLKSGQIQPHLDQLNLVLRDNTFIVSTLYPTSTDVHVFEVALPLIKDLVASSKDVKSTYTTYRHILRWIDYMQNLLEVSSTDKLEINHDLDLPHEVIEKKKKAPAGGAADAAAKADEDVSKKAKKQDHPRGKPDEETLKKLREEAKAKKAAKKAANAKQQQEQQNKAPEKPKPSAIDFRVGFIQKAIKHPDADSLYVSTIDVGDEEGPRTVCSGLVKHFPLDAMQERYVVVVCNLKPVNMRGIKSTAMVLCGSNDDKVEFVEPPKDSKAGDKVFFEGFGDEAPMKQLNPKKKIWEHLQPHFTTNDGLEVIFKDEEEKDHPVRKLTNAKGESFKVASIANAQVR
The description is as above. The settings on record: protein: recombinant; tags: His-MBP removed.
Regarding B20, the IC50 was 1.71 ± 0.125 µM.

Regarding B27, the IC50 stood at 9.92 µM.

Regarding B28, the IC50 is 4.52 µM.

Take B31: the IC50 is 5.11 µM.

Still in this data set, the particulars now being: protein: recombinant; tags: His-MBP removed; tRNA-like.
Turning to B36, the IC50 was found to be 1.14 ± 0.127 µM.
